Source: US20090175881A1 (SCHERING, published 2009)
Changes are numbered by the printed parent chain.

How the values were obtained:
[1] = molecular target: T1, rhIL-17A (human, UniProt Q16552 24-155); assay: indirect ELISA, rhIL-17A coated on plate
T1 construct: Homodimer; expressed from adenoviral vectors in HEK 293 cells; also called recombinant human IL-17A; adenovirus-derived rhIL-17A
T1 sequence: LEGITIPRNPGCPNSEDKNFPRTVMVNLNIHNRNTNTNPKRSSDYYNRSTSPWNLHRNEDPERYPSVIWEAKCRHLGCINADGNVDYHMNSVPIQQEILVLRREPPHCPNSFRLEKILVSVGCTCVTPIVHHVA
Procedure: Binding of anti-human-IL-17A monoclonal antibodies to rhIL-17A is assessed using an indirect enzyme-linked immunosorbent assay (ELISA). Briefly, a fixed concentration of rhIL-17A is bound directly to the wells of a microtiter plate. The monoclonal anti-IL-17A to be assayed is then is added to the rhIL-17A coated plate, where the antibody is captured and quantitated.
A 96-well U-bottom MaxiSorp plate is coated with 50 μl/well of rhIL-17A (0.5 μg/ml) in carbonate coating buffer (the “assay plate”). Carbonate coating buffer is 2.9 g/L NaHFCO₃, 1.6 g/L Na₂CO₃, pH 9.4. Plates are incubated covered at 4° C. overnight. Monoclonal antibodies to be screened are serially diluted in duplicate across the rows of a V-bottom plate such that the final volume is 60 μl/well (the “serial dilution plate”). The assay plate is washed three times with PBS-Tween in a plate washer (SkanWasher, Molecular Devices, Sunnyvale, Calif., USA) and blotted dry. PBS-Tween is obtained by adding 0.5 ml/L Tween 20 to 1×PBS. Fifty μl from each well of the serial dilution plate is transferred to the assay plate and incubated at 25° C. for one hour. Secondary antibodies are diluted 1/2000 in diluent (PBS-BSA-Tween, which is PBS-Tween with 1 g/L BSA). The secondary antibody for rat monoclonal antibodies is goat anti-rat IgG (H+L)—HRP (Jackson ImmunoResearch Laboratories, Inc., West Grove, Pa., USA). The secondary antibody for chimeric and humanized monoclonal antibodies is F(ab′)₂ goat anti-human IgG Fcγ—HRP (Jackson ImmunoResearch Laboratories, Inc.). The assay plate is washed as before. Diluted secondary antibodies (100 μl/well) are added to the appropriate wells in the assay plate, and the plate is incubated at 25° C. for 45 minutes. The assay plate is washed as before.

[2] = molecular target: T2, FLAG-tagged mouse IL-17A (mouse, UniProt Q62386 26-158, limits assumed); assay: observation on which Example 19 is based
T2 construct: also called mIL-17A; intact mIL-17A
T2 sequence: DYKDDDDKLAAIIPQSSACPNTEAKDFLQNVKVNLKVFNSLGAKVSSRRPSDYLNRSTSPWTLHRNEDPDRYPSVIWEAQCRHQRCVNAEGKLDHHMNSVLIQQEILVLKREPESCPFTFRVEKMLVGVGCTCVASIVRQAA

[3] = molecular target: T3, cynomolgus monkey IL-17A (cynomolgus monkey, UniProt A0A2K5TTB0 24-155); assay: cell-based or functional assay
T3 sequence: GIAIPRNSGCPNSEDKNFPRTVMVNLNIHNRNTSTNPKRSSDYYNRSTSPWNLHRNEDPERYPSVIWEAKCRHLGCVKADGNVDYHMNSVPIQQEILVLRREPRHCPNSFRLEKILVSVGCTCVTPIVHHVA

[4] = molecular target: T1, rhIL-17A; assay: cell-based or functional assay
[5] = molecular target: T3, cynomolgus monkey IL-17A; assay: cell-based or functional assay; remark: listed apart in the source
[6] = molecular target: T1, rhIL-17A; assay: cell-based or functional assay; remark: listed apart in the source
[7] = molecular target: T4, FLAG-huIL-17A (human, UniProt Q16552 24-155); assay: ECL (Origen), antibody titrated against biotinylated antigen; area under the curve
T4 construct: also called FLAG-huL-17A; FLAG-IL-17A
T4 sequence: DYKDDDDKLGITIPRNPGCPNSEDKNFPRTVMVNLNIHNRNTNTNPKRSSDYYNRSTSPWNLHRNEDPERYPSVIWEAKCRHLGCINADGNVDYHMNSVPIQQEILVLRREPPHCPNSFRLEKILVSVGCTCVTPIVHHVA
Source text: (§1) Origen electrochemiluminescence technology, developed by IGEN, Inc. (Gaithersburg, Md., USA), and was employed to measure the binding of rat anti-human IL-17A antibodies (and one chimeric antibody) to FLAG-huL-17A. […] Electrochemiluminescence technology uses a stable ruthenium metal chelate (Ori-TAG) which, in the presence of tripropylamine (TPA), generates electrochemiluminescence upon voltage application. Paramagnetic beads, microns in diameter, act as the solid phase and facilitate rapid assay kinetics. The bead/complex is channeled through a flow cell and captured at an electrode by magnetic application. Voltage is applied and resulting electrochemiluminescence is measured.
(§2) ECL assays were performed as follows. Three-fold serial dilutions of anti-human IL-17A mAbs in 50 μl of the assay buffer were made in a 96-well microtiter plate to give 1-3 μg/ml final concentration in the first well. […] Finally 50 μl of Origen Streptavidin-Dynabeads at 0.1 mg/ml was added to each well. […] GraphPad Prism software (GraphPad Software, San Diego, Calif., USA) was used to plot the data and calculate area under the curve, which is a rough measure of binding.

[8] = molecular target: T5, FLAG-tagged human IL-17F (human, UniProt Q96PD4 31-163, limits assumed); assay: AlphaScreen
T5 construct: also called intact IL-17F
T5 sequence: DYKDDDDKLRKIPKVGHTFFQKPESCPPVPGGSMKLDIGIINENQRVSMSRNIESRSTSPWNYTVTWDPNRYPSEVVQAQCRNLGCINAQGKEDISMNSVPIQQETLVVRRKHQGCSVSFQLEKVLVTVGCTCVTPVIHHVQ
Procedure: Each of these three proteins was linked to an N-terminal FLAG® peptide tag (see residues 1 to 9 of SEQ ID NO.: 42). […] Donor and acceptor beads were mixed, illuminated at 680 nm, and emission was measured at 520-620 nm.

[9] = molecular target: T3, cynomolgus monkey IL-17A; assay: cell-based or functional assay; remark: listed apart in the source
[10] = molecular target: T1, rhIL-17A; assay: cell-based or functional assay; remark: listed apart in the source
[11] = molecular target: T3, cynomolgus monkey IL-17A; assay: cell-based or functional assay; remark: listed apart in the source
[12] = molecular target: T1, rhIL-17A; assay: cell-based or functional assay; remark: listed apart in the source
[13] = molecular target: T3, cynomolgus monkey IL-17A; assay: KinExA, solution equilibrium
Procedure: (§3) The equilibrium dissociation constants (Kd) for anti human IL-17A antibodies were determined using the KinExA 3000 instrument (Sapidyne Instruments Inc., Boise, Id., USA). KinExA uses the principle of the Kinetic Exclusion Assay method based on measuring the concentration of uncomplexed antibody in a mixture of antibody, antigen and antibody-antigen complex. […] The concentration of free antibody is measured by exposing the mixture to a solid-phase immobilized antigen for a very brief period of time. l practice, this is accomplished by flowing the solution phase antigen-antibody mixture past antigen-coated particles trapped in a flow cell. Data generated by the instrument are analyzed using custom software.
(§4) IL-17A was derived from either human (“hu”), cynomolgus monkey (“cyno”), or mouse (“mu”). IL-17A from the same species was used in both the immobilized and solution phases for each KinExA determination. Poly(methyl-methacrylate) (PMMA) particles (98 micron) were coated with human, cyno or mouse IL-17A according to Sapidyne “Protocol for coating PMMA particles with biotinylated ligands having short or nonexistent linker arms.” All experimental procedures were done according to the KinExA 3000 manual. All runs were done in duplicate.
(§5) Two-fold serial dilutions of the antigen were prepared and mixed with the antibody at constant concentration. The mixture was incubated for 2 hours at 25° C. to equilibrate.

[14] = molecular target: T1, rhIL-17A; assay: KinExA, solution equilibrium
Procedure: as §3, §4, §5

[15] = molecular target: T4, FLAG-huIL-17A; assay: KinExA, solution equilibrium
Procedure: as §3, §4, §5

[16] = molecular target: T6, mouse IL-17A (mouse, UniProt Q62386 26-158, limits assumed); assay: ECL (Origen)
T6 construct: also called mu IL-17A; mu IL-17
T6 sequence (looked up): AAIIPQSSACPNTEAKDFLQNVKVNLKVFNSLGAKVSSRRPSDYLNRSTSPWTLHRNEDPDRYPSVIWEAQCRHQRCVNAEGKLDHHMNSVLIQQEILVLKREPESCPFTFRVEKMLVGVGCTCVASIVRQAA
Procedure: as §2

[17] = molecular target: T3, cynomolgus monkey IL-17A; assay: ECL (Origen); area under the curve
Source text: as §1, §2

[18] = molecular target: T1, rhIL-17A; assay: cell-based or functional assay; remark: listed apart in the source
[19] = molecular target: T7, native human IL-17A (human, UniProt Q16552 24-155); assay: cell-based or functional assay
T7 sequence: T3 sequence with A3T, S8P, S34N, V77I, K78N, R104P

[20] = molecular target: T7, native human IL-17A; assay: cell-based or functional assay; remark: listed apart in the source
[21] = molecular target: T6, mouse IL-17A; assay: KinExA, solution equilibrium
Procedure: as §3, §4, §5

[22] = molecular target: T6, mouse IL-17A; assay: ECL (Origen); area under the curve
Source text: as §1, §2

B1: rat 16C10 (antibody, rat IgG1, V domains shown)
VH: QVELRESGPGLVQPSQTLSLTCTVSGFSLPSHSVSWIRQPPGKGLEWMGIIWNNGGTDYNSAFKSRLTISRDTSKSQVFLKMNSLQTEDTAMYFCARNMYITDYYYENYFMDAWGQGASVTVSS
VL: DIVMTQSPSSLAVSIGETVTLNCKSSQSLLFSENQKNYLAWYQHKSGQSPKLLVYWTSTRQSGVPDRFMGSGSGTDFTLTISSVQAEDLAIYYCQQSYYTPYTFGAGTKLELKR
notes: also called 16C10C; antibody 16C10
EC50 [1]: 0.274 nM | binding result [2]: no binding | IC50, synoviocyte IL-6 production, NHP IL-17A (30 ng/ml) [3]: 0.06 mg/L | IC50, synoviocyte IL-6 production, rhIL-17A (30 ng/ml) [4]: 0.063 mg/L | IC50, Ba/F3 hIL-17Rc-mGCSFR proliferation assay, IL-17A at 100 pM [5]: 27 pM | IC50, Ba/F3 hIL-17Rc-mGCSFR proliferation assay, IL-17A at 100 pM [6]: 20 pM | IC50, Ba/F3 hIL-17Rc-mGCSFR proliferation assay, IL-17A at 276 pM [6]: 162 pM | Area Under Peak [7]: 286000 | binding result [8]: no binding | IC50, inhibition of IL-6 production in NHDF cells, cyno IL-17A [9]: 0.2 nM | IC50, inhibition of IL-6 production in NHDF cells, rhIL-17A [10]: 0.5 nM | IC50, synoviocyte IL-8 production, NHP IL-17A (30 ng/ml) [11]: 0.033 mg/L | IC50, synoviocyte IL-8 production, rhIL-17A (30 ng/ml) [12]: 0.038 mg/L | Kd [13]: 0.0017 nM | Kd [14]: 0.006 nM | Kd [15]: 0.0036 nM | binding result [16]: no binding (tested: 1-3 µg/ml antibody in the first well) | Area Under Peak [17]: 152000 | IC50, foreskin fibroblast (HS68) assay, rhIL-17A-induced IL-6 [18]: 0.067 nM

B2: rat 1D10 (antibody, V domains shown)
VH: QVQLKESGPGLVQPSQTLSLTCTVSGFSLTNYYVHWVRQPPGKGLEWMGGVWNDGDTSYNSVLRSRLSITRDTSKSQVLLKMSSLQTEDTATYYCAREGREGFVGYYVMDAWGPGASVTVSS
VL: DIQMTQSPSFLSASVGERVTLSCKASQNINKYLDWFQQKLGEAPKLLIYNADNLHTGIPSRFSGSGSFSDFILTISSLQPEDDATYFCLQRESWPYTFGAGTKLELKR
notes: Parental rat monoclonal antibody; also called ID10; anti-IL-17A antibody 1D10
IC50, synoviocyte IL-6 production, NHP IL-17A (30 ng/ml) [3]: 0.065 mg/L | IC50, synoviocyte IL-6 production, rhIL-17A (30 ng/ml) [4]: 0.105 mg/L | IC50, synoviocyte IL-6 production, Native huIL-17A (10 ng/ml) [19]: 0.025 mg/L | IC50, Ba/F3 hIL-17Rc-mGCSFR proliferation assay, IL-17A at 100 pM [5]: 19 pM | IC50, Ba/F3 hIL-17Rc-mGCSFR proliferation assay, IL-17A at 276 pM [6]: 223 pM | Area Under Peak [7]: 477000 | IC50, inhibition of IL-6 production in NHDF cells, cyno IL-17A [9]: 0.4 nM | IC50, inhibition of IL-6 production in NHDF cells, rhIL-17A [10]: 1 nM | IC50, synoviocyte IL-8 production, NHP IL-17A (30 ng/ml) [11]: 0.038 mg/L | IC50, synoviocyte IL-8 production, rhIL-17A (30 ng/ml) [12]: 0.059 mg/L | IC50, synoviocyte IL-8 production, Native huIL-17A (10 ng/ml) [20]: 0.04 mg/L | Kd [13]: 0.0098 nM | Kd [15]: 0.0017 nM | Kd [21]: 0.0103 nM | Area Under Peak [17]: 136000 | Area Under Peak [22]: 252000 | IC50, foreskin fibroblast (HS68) assay, rhIL-17A-induced IL-6 [18]: 0.065 nM

B3: rat 23E12 (antibody, V domains shown)
VH: QVQLKESGPGLVQPSQTLSLTCTVFGFSLTNNGVTWVRQPPGKGLEWIAEVSSGGSTDYNSALKSRLSISRDTSKSQVFLRMNSLQTEDTAIYFCARQEVFTGLLDYWGQGVMVTVSS
VL: DIQMTQSPASLSASLGETVTIQCQASEDIYSGLAWYHQKPGKSPQLLILGASRLHDGVPSRFSGSGSGIEYSLKINNMQTEDEGIYFCQQGLKYPPTFGGGTKLELKR
notes: Parental rat monoclonal antibody (hybridoma PTA-7740)
Area Under Peak [7]: 285000 | IC50, inhibition of IL-6 production in NHDF cells, cyno IL-17A [9]: 0.3 nM | IC50, inhibition of IL-6 production in NHDF cells, rhIL-17A [10]: 1 nM | Kd [13]: 0.028 nM | Kd [15]: 0.0028 nM | Kd [21]: 7 nM | Area Under Peak [17]: 111000 | Area Under Peak [22]: 143000 | IC50, foreskin fibroblast (HS68) assay, rhIL-17A-induced IL-6 [18]: 0.126 nM
